Test [1] deals with HLA-DR0403 (DRA1*0101/DRB1*0403), soluble recombinant (human). Put plainly: ELISA. (In general: An ELISA detects its analyte on a solid surface through an enzyme-linked reagent.)
In test [2] the target is T1, HLA-DR0403 (Homo sapiens, UniProt P01903+P01911, A100R/A103E/A169T/F76Y/I96L/K127E/L162R/M171V/N62H/P40V/Q125Y/R42H/S133A/S149N/S66Y/V209L/W38E). Description: Kinetic analysis. The settings on record: pH 5.4, read-out: Kd 0403 (dissociation rate constant). In kind it is binding.
Test [3] deals with T2, HLA-DR0401 (Homo sapiens, UniProt P01903+P01911, A100K/A169T/F76Y/I96L/K127E/L162R/M171V/N62H/P40V/Q125Y/R42H/S133A/S149N/S66Y/V115G/V209L/W38E). Description: Kinetic analysis. Type of test: binding. The settings on record: pH 5.4, read-out: Kd 0401 (dissociation rate constant).
The target of test [4] is T2, HLA-DR0401. Description: biochemical. In kind it is binding.
The target of the next test is HLA-DR0405 (Homo sapiens, UniProt P01903+P01911, A100R/A169T/D86S/F76Y/I96L/K127E/L162R/M171V/N62H/P40V/Q125Y/R42H/S133A/S149N/S66Y/V115G/V209L/W38E). Put plainly: Indirect. Type of test: binding. The settings on record: read-out: IC50 (uM) 0405; pH 5.4.
In test [5] the target is T1, HLA-DR0403. Put plainly: biochemical. Type of test: binding.
Another test has as its target DR0403 (Homo sapiens, UniProt P01903+P01911, A100R/A103E/A169T/F76Y/I96L/K127E/L162R/M171V/N62H/P40V/Q125Y/R42H/S133A/S149N/S66Y/V209L/W38E). Description: 16-hour direct binding assay of biotinylated reference peptide, DR0403.
Test [6] concerns the target HLA-DR0401 (DRA1*0101/DRB1*0401), soluble recombinant (human). Description: ELISA.
The target in test [7] is HLA-DR0403 (DRA1*0101/DRB1*0403), soluble recombinant (human). Put plainly: ELISA. This is another data set of the same source.

Where two headings read alike, the source gives them in different places. Residues, ends and D or L forms follow the SMILES beside them. No end group written: not given here.

As a reminder, the EC50 is the midpoint of the concentration-response curve. Turning to “biotinylated influenza hemagglutinin derived peptide HA306”, the EC50 in [1] is more than 15 µM.

Broadly, the IC50 is the midpoint of a concentration-inhibition curve. Take `CC(C)C[C@H](NC(=O)[C@H](CC(C)C)NC(=O)[C@@H]1CCCN1C(=O)[C@H](CC(=O)O)NC(=O)[C@H](Cc1ccccc1)NC(=O)[C@H](C)NC(=O)CNC(=O)[C@H](Cc1ccc(O)cc1)NC(=O)[C@@H](NC(=O)[C@@H](NC(=O)[C@@H](NC(=O)CNC(=O)[C@H](C)NC(=O)[C@@H](NC(=O)[C@H](C)NC(=O)[C@H](CO)NC(=O)[C@@H](NC(=O)[C@H](CC(C)C)NC(=O)[C@H](Cc1ccccc1)NC(=O)[C@@H]1CCCN1)C(C)C)[C@@H](C)O)[C@@H](C)O)[C@@H](C)O)C(C)C)C(=O)O` [GAD65p42] (H-PFLVSATAGTTVYGAFDPLL-OH): the koff at HLA-DR0403 [2] was 2.02e-05 s⁻¹; at HLA-DR0401 [3], 5.42e-05 s⁻¹. In addition, the IC50 on HLA-DR0401 [4] is 2.07 µM; at HLA-DR0405 it was more than 10 µM; at HLA-DR0403 [5], 1.27 µM.

For the molecule NFIRMVISNPAAT [557I], at DR0403, the “ED50 to bind 0.05 µM DR0403” value came out at 0.01 µM.

`CC[C@H](C)[C@H](NC(=O)[C@@H](NC(=O)[C@@H]1CCCN1C(=O)[C@H](C)NC(=O)[C@@H](N)C(C)C)C(C)C)C(=O)N[C@@H](CCCCN)C(=O)N[C@@H](C)C(=O)N[C@@H](CCCNC(=N)N)C(=O)N[C@@H](CCSC)C(=O)N[C@@H](CCSC)C(=O)N[C@@H](CCC(=O)O)C(=O)N[C@@H](Cc1ccc(O)cc1)C(=O)NCC(=O)N[C@H](C(=O)N[C@H](C(=O)N[C@@H](CCSC)C(=O)N[C@H](C(=O)N[C@@H](CO)C(=O)N[C@@H](Cc1ccc(O)cc1)C(=O)N[C@@H](CCC(N)=O)C(=O)O)C(C)C)[C@@H](C)O)[C@@H](C)O` [GAD65p67] (H-VAPVIKARMMEYGTTMVSYQ-OH): the koff on HLA-DR0403 [2] is 7.67e-05 s⁻¹; at HLA-DR0401 [3] it was 0.000149 s⁻¹. Further, the 50% inhibitory concentration (IC50) is 0.64 µM at HLA-DR0401 [4], more than 10 µM at HLA-DR0405 and 1.61 µM against HLA-DR0403 [5].

B1: preproinsulin p12 (peptide)
peptide: RGIVEQCCTSICSLYQLENY
In the case of B1, the values for the IC50 in test [6] and in [7] were 0.22 µM and 1.89 µM, respectively.

B2: biotinylated GAD65p42 (peptide)
peptide: PFLVSATAGTTVYGAFDPLL
modifications: not fully specified
As for B2, the results for the koff in test [6] and in [7] were 5.42e-05 s⁻¹ and 2.02e-05 s⁻¹, respectively. For the same molecule, the results for the t1/2 in test [6] and in [7] were 3.6 min and 9.6 min, respectively.

B3: GAD65p55 (peptide)
peptide: YDLSYDTGDKALQCGRHVDV
Turning to B3, in test [6], the concentration for half-maximal inhibition (IC50) came to 10 µM.

B4: GAD65p10 (peptide)
peptide: CACDQKPCSCSKVDVNYAFL
With B4, in [7], the IC50 was 3.55 µM.

B5: preproinsulin p10 (peptide)
peptide: GAGSLQPLALEGSLQKRGIV
B5: in [6], the concentration for half-maximal inhibition (IC50) stood at 8.75 µM.

B6: preproinsulin p13 (peptide)
peptide: TSICSLYQLENYCN
In the case of B6, the half-maximal inhibitory concentration (IC50) in [7] was 0.47 µM.

B7: GAD65p32 (peptide)
peptide: YAMMIARFKMFPEVKEKGMA
For B7, the IC50 in test [7] amounted to 10 µM.

B8: GAD65p64 (peptide)
peptide: CFWYIPPSLRTLEDNEERMS
As for B8, the IC50 in [7] stood at 1 µM.

B9: biotinylated GAD65p67 (peptide)
peptide: VAPVIKARMMEYGTTMVSYQ
modifications: not fully specified
Turning to B9, in test [6], the koff worked out at 0.000149 s⁻¹ and the t1/2 was determined as 77.4 min. In test [7], the koff turned out to be 7.67e-05 s⁻¹ and the t1/2 came to 151 min.

B10: biotinylated GAD65-557I (peptide)
peptide: NFIRMVISNPAAT
modifications: not fully specified
For B10, the 50% effective concentration (EC50) in test [7] is 0.01 µM.

B11: GAD65p22 (peptide)
peptide: YAIKTGHPRYFNQLSTGLDM
In the case of B11, the concentration for half-maximal inhibition (IC50) in test [7] was determined as 10 µM.

Values taken from article PMC3046295 (Journal of autoimmunity, 2011).
